Reference: publication PMC11018626, “Sm-like protein Rof inhibits transcription termination factor ρ by binding site obstruction and conformational insulation” (Nature Communications, 2023)
Numbering of substitutions follows the chain as printed. Names may count otherwise. Values belong to the binder of their own block, whether it stands above or below them.

Tests used:
[1] = target: T1, Rho (transcription termination factor) (Escherichia coli, UniProt P0AG30 1-419); test: fluorescence anisotropy; 5 mM Mg2+; no Rof; PBS binding; Anisotropy: 20 mM Na-HEPES pH 7.5, 150 mM KCl, 5% glycerol, 5 mM MgCl2, 0.5 mM TCEP; 5 µM FAM-dC15 or 2 µM FAM-rU12; temperature not stated; details: protein: recombinant; chain copies: 6; label: 5'-FAM; single strand
[2] = target: T2, Transcription termination factor ρ F89S (E. coli) (E. coli, UniProt P0AG30 1-419, F89S); test: SEC; analytical SEC, Superdex S200 PC 3.2 column, 5 µM ρ and 90 µM Rof/variants mixed in reaction buffer (20 mM Tris-HCl pH 8.0, 120 mM KOAc, 5 mM Mg(OAc)2, 2 mM DTT), 32 °C 10 min, run at 4 °C; fractions analysed by SDS-PAGE; details: both partners purified
T2 construct: Transcription termination factor Rho, E. coli, with F89S

[3] = target: T3, Transcription termination factor ρ K115E (E. coli) (E. coli, UniProt P0AG30 1-419, K115E); test: as above; details: both partners purified
T3 construct: Transcription termination factor Rho, E. coli, with K115E

[4] = target: Transcription termination factor ρ, wild type (E. coli) (E. coli, UniProt P0AG30 1-419); test: cell-based or functional assay
[5] = target: T1, Rho (transcription termination factor); test: fluorescence anisotropy; 2 mM ADP-BeF3, 10 µM unlabeled dC15 blocking PBS; SBS binding / ring closure; Anisotropy: 20 mM Na-HEPES pH 7.5, 150 mM KCl, 5% glycerol, 5 mM MgCl2, 0.5 mM TCEP; 5 µM FAM-dC15 or 2 µM FAM-rU12; temperature not stated; details: protein: recombinant; chain copies: 6; label: 5'-FAM; single strand
[6] = target: T1, Rho (transcription termination factor); test: cryo-EM; ADP-BeF3; closed ring, 2.9 Å; Anisotropy: 20 mM Na-HEPES pH 7.5, 150 mM KCl, 5% glycerol, 5 mM MgCl2, 0.5 mM TCEP; 5 µM FAM-dC15 or 2 µM FAM-rU12; temperature not stated; details: protein: recombinant; chain copies: 6; boxB hairpin
[7] = target: Rho R88E (Escherichia coli, UniProt P0AG30 1-419, R88E); test: analytical SEC; Anisotropy: 20 mM Na-HEPES pH 7.5, 150 mM KCl, 5% glycerol, 5 mM MgCl2, 0.5 mM TCEP; 5 µM FAM-dC15 or 2 µM FAM-rU12; temperature not stated; details: protein: recombinant; chain copies: 6; boxB hairpin
[8] = target: Rho F89S (Escherichia coli, UniProt P0AG30 1-419, F89S); test: as above; details: protein: recombinant; chain copies: 6; boxB hairpin

Binder: CCCCCCCCCCCCCCC (ssDNA) [dC15]
Kd [1]: 1000 nM

binding result [2]: binds | binding result [3]: binds
B1: Rof, wild type, tag-less (E. coli) (natural protein)
chain: MNDTYQPINCDDYDNLELACQHHLMLTLELKDGEKLQAKASDLVSRKNVEYLVVEAAGETRELRLDKITSFSHPEIGTVVVSES
notes: Rof (YaeO), E. coli; codon-optimised rof gene; the C-terminal residue is printed as S84 (84-residue form); the residue numbers used (I8 to S84) fit the 84-residue form; also called Rof^wt; ecRof; source: E. coli RIL (BL21), purified (Ni2+-NTA, TEV protease, Superdex 75)

transcripts terminated by ρ in vitro (λ tR1 template; 25 nM ρ, 5 µM Rof variant); 87% in the absence of Rof [4]: 90%
B2: Rof Y13A (E. coli) (natural protein)
chain: B1 chain with Y13A

transcripts terminated by ρ in vitro (λ tR1 template; 25 nM ρ, 5 µM Rof variant); 87% in the absence of Rof [4]: 25%
B3: Rof E17A (E. coli) (natural protein)
chain: B1 chain with E17A

transcripts terminated by ρ in vitro (λ tR1 template; 25 nM ρ, 5 µM Rof variant); 87% in the absence of Rof [4]: 86%
B4: Rof D14A (E. coli) (natural protein)
chain: B1 chain with D14A

Binder: UUUUUUUUUUUU (ssRNA) [rU12]
binding result [5]: binds

B5: rut RNA (lambda tR1) (structured_RNA)
RNA: GGGAUAACCCCGCUCUUACACAUUCCAGCCCUGAAAAAGGGCAUCAAAUUAAACCACACCUAUGGUGUAUGUCAAAUUAAACCACA
binding result [6]: binds | binding result [7]: no binding | binding result [8]: binds
